The source of these data is the supplement of paper PMC9170038.

This series has as its system MS2 coat protein. Nature of the series: apparent KD of MS2 coat protein; designed switch direction (-1 OFF switch, 1 ON switch): -1; higher = weaker reporter binding. In outline: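 The reported apparent KD is a per-design median over clusters, from curve fits of normalised cluster fluorescence. Protein titrations used SNAP-549-labelled MS2 coat protein, doubled from 0.7 or 1.5 nM to 3 µM, in Tris-HCl pH 7.5 buffer with KCl, MgCl2, BSA, DTT, tRNA and Tween-20, with no input, 200 uM small-molecule ligand, or an oligonucleotide input. The RNA switches were transcribed on Illumina chips by stalled E. coli RNA polymerase.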

Setting [1] is: Eterna round: R95, input ligand: FMN 200 uM.
The mark [2] stands for this setting: Eterna round: R95, input ligand: microRNA oligo, concentration not stated.
The mark [3] stands for this setting: Eterna round: R95, input ligand: none.
The mark [4] stands for this setting: input ligand: microRNA oligo, concentration not stated.

Consider “AACCUGGCUGUUCACAGGAACAUGAGGAUCACCCAUGUCGUGGGUAGAUCCCUCCCUGGGAAAUCUGCUCGUCUUAU [Cac Sensor turn off v1 sub13] (Eterna round: R97, puzzle: Sensor, turn-off variant 1)”, for which the “apparent KD of MS2 coat protein” value amounted to 34.6 nM (input ligand: FMN 200 uM) and 34.2 nM (input ligand: none).
For “GUGUAACUACACGGGCUCAACAUGAGGAUCACCCAUGUCAUACACGCAAGCUUUUUGCUUGUCUUAUCUGUCCGUGU [Cegeesre] (puzzle: Sensor v3, turn-off variant 1)”, the “apparent KD of MS2 coat protein” value is 12.4 nM under setting [1], 12.2 nM under setting [2] and 11.5 nM under setting [3].
“AAUAAUAAGGAGGAUAUCGUAUCGGAAACGAUACGAGAAGGCUUAACAUGAGGAUCACCCAUGUUCCUCAAUAA [Fiskers Ex 6 - 22] (puzzle: Exclusion 6)”: the “apparent KD of MS2 coat protein” value under setting [2] came out at 33.5 nM.
As to “AGGUCCUUCUGGAGACAUGAGGAUCACCCAUGUCGGGUCAGCGAGGAUAUCGGUUAAUAAUGUGACGAGAAGGCGCGGACCGAU [Ex NG3 #56] (Eterna round: R96, puzzle: Exclusion NG 3)”, the “apparent KD of MS2 coat protein” value amounted to 104 nM (input ligand: FMN 200 uM), 19.5 nM under setting [4] and 24.9 nM (input ligand: none).
In the case of “ACCGACAGAGGAUAUGCAAGUAGGAACAUGAGGAUCACCCAUGUGAUACGUGCACGUGCGGCAGAAGGCUGAUCGA [Velamaed] (Eterna round: R97, puzzle: Exclusion 5)”, the “apparent KD of MS2 coat protein” value (input ligand: FMN 200 uM) was 17.1 nM and the “apparent KD of MS2 coat protein” value (input ligand: none) is 15.4 nM.
Consider “GGAAGAAUGAGUAGUCCUCAUUGAAGAGAAUAGUAAGAAACAUGAGGAUCACCCAUGUAAGAACAAGCUUUUGCUCA [JR_Sv3TOV2_Sub003] (puzzle: Sensor v3, turn-off variant 2)”, for which the “apparent KD of MS2 coat protein” value came out at 227 nM under setting [1], 85 nM under setting [2] and 179 nM under setting [3].
In the case of “CAUGAUCUUCGGAUCAUGUACAUGAGGAUCACCCAUGUGACGAGUAUAUCUUCAAACAAGCUUUUUGCUCGUCUUAU [Sensor v3 - Turn-off variant 1 - 23] (puzzle: Sensor v3, turn-off variant 1)”, the “apparent KD of MS2 coat protein” value came to 41.6 nM under setting [1], 49.8 nM under setting [2] and 41.6 nM under setting [3].
As for “GCACGGAGUGUAGGAUAUUAGUGCGAUUAGCACUGAGAAGGACAUGAGGAUCACCCAUGUUCCUCAUAAAUUAGCCUUCCGUGC [Eli exng1 - 037] (Eterna round: R96, puzzle: Exclusion NG 1)”, the “apparent KD of MS2 coat protein” value runs as follows: (input ligand: FMN 200 uM) 27.4 nM; under setting [4], 21 nM; (input ligand: none) 27 nM.
With “GAUCUGUAAGGAUAUCGUGCAAGUUUCAAAAGAGGCUUGUGCGAGAAGGUACAUGAGGAUCACCCAUGUAGGUU [Omei Ex4 B15] (Eterna round: R97, puzzle: Exclusion 4)”, the “apparent KD of MS2 coat protein” value runs as follows: (input ligand: FMN 200 uM) 52.6 nM; (input ligand: none) 40.1 nM.
Take “GCUGGAAGAGGAUAUACAUAAGGUGCGUCAGCACCGGGCCUACAUGAGGAUCACCCAUGUAGAAGGCUUCCAGC [EX2 #78] (Eterna round: R97, puzzle: Exclusion 2)”: the “apparent KD of MS2 coat protein” value (input ligand: FMN 200 uM) is 55.1 nM and the “apparent KD of MS2 coat protein” value (input ligand: none) is 15.2 nM.
For the sequence “UUUUAACAUGAGGAUCACCCAUGUGAGGAUAUCGUUAUUUAUAUUAAUAUUAAUAAAACGAGAAGGCACAUUUU [JMF 6] (puzzle: Exclusion 1)”, the “apparent KD of MS2 coat protein” value under setting [2] came out at 117 nM.
In the case of “CCCUGACAUGAGGAUCACCCAUGUUAGGAUAUAACAUUUGACGCGACAGUGUGGAGUGUUAGAAGGGAUAUGGG [-28.4, -26.7 kcal, A 28%] (Eterna round: R97, puzzle: Exclusion 1)”, the “apparent KD of MS2 coat protein” value (input ligand: FMN 200 uM) is 29.9 nM and the “apparent KD of MS2 coat protein” value (input ligand: none) is 20.8 nM.
As to “AGAUAACAUGAGGAUCACCCAUGUGAGGAUAUUUACCCAAGAGCUUCGGCUCUCAGGUGAAGAAGGCACAUUGA [EX1 #58] (Eterna round: R97, puzzle: Exclusion 1)”, the “apparent KD of MS2 coat protein” value amounted to 316 nM (input ligand: FMN 200 uM) and 86.4 nM (input ligand: none).
With “AACCGCAUAGGAUAUCGAGCAGAGGACUUGAGGAUCACCCAAGUCCUUGAGUUCUUUGUCCGAGAAGGAUGAACAU [Ususrace] (Eterna round: R97, puzzle: Exclusion 5)”, the “apparent KD of MS2 coat protein” value was found to be 13.7 nM (input ligand: FMN 200 uM) and 14.6 nM (input ligand: none).
Turning to “UCAAGUAUGUAGGAUAUCGAUGUCUACGGACAUCGAGAAGGACGUACAUGAGGAUCACCCAUGUAACUUGCAUG [Exclusion 6 - B - 10:d] (puzzle: Exclusion 6)”, the “apparent KD of MS2 coat protein” value reads like this: under setting [1], 37.2 nM; under setting [2], 79.4 nM; under setting [3], 108 nM.
As to “AUCAAAGAAUAUCAUAAGCACAUGAGGAUCACCCAUGUGAUGGGUGAGAGCCUGAAAGCCACUUCUGCUCGUCUUAU [Cac Sensor turn off var1 sub9] (Eterna round: R97, puzzle: Sensor, turn-off variant 1)”, the “apparent KD of MS2 coat protein” value is 969 nM (input ligand: FMN 200 uM) and 883 nM (input ligand: none).
As for “GCCUCACAUGAGGAUCACCCAUGUGAGGAUAUUGAGUUACCAGGCGAACAAGCGACUACGAGAAGGCACGUGGA [Eternabot (L2) Solution 85] (Eterna round: R97, puzzle: Exclusion 1)”, the “apparent KD of MS2 coat protein” value stood at 12 nM (input ligand: FMN 200 uM) and 13.9 nM (input ligand: none).
In the case of “CUGUGCACGCUGCGAUCCUACAUGAGGAUCACCCAUGUGGUCUGGUGGCGUGGGUCACCGGACUUGGCUCGUCUUGG [salish99_S_TOV1_R5_078] (Eterna round: R97, puzzle: Sensor, turn-off variant 1)”, the “apparent KD of MS2 coat protein” value amounted to 129 nM (input ligand: FMN 200 uM) and 150 nM (input ligand: none).
As to “UUAGAUAGGUCAGGAUAUCGAUGAUUGAAUAGUAUGAUUUACAUGAGGAUCACCCAUGUUAAAUACGAGAAGGGACGUUAGAUU [JR_ExcNG2_Sub021] (Eterna round: R96, puzzle: Exclusion NG 2)”, the “apparent KD of MS2 coat protein” value (input ligand: FMN 200 uM) stood at 17.9 nM, the “apparent KD of MS2 coat protein” value under setting [4] was found to be 17.9 nM and the “apparent KD of MS2 coat protein” value (input ligand: none) is 21.3 nM.
For “AGUCCUGGAGUUAGGAUAUGGCGUAUCGCUGCGCUUCAGAAGGGACUUGAGGAUCACCCAAGUAGCCGUGAGGG [salish99_bmod_ex4_r4_008] (Eterna round: R97, puzzle: Brourd's mod of Exclusion 4)”, the “apparent KD of MS2 coat protein” value runs as follows: (input ligand: FMN 200 uM) 81.7 nM; (input ligand: none) 82.4 nM.
As for “ACAUUCAGAGGAUAUGCGCAUAGAUAAGACUUUUUUUUUUAACAUGAGGAUCACCCAUGUAGAAGGCUGUAACC [Ex2 #48] (Eterna round: R97, puzzle: Exclusion 2)”, the “apparent KD of MS2 coat protein” value reads like this: (input ligand: FMN 200 uM) 23.8 nM; (input ligand: none) 24.3 nM.
In the case of “CUGUACUGAGGAUAUACAUGAGGAUCACCCAUGUGAUUCAGUGCACGCGUACGUGUACGUAGAAGGCAGUACAG [Mat - Exclusion 3 - Eli Mod - D37] (Eterna round: R97, puzzle: Exclusion 3)”, the “apparent KD of MS2 coat protein” value reads like this: (input ligand: FMN 200 uM) 750 nM; (input ligand: none) 42.5 nM.
On to “UUGUGCAAAGGAUAUACGUCCGACCUCGUGGAACUGAGAAUACAUGAGGAUCACCCAUGUAGAAGGUUGCCGAG [Racereus] (puzzle: Exclusion 2)”, for which, under setting [2], the “apparent KD of MS2 coat protein” value came to 10.5 nM.
